What was measured:
[1] = target: T1, ATP5C1 (endogenous, HCT116 human colon cancer cells) (human, UniProt P36542 26-298); assay: interaction analysis by immunoblot in HCT116 xenograft tumor lysates of treated mice (FIG. 6A, bottom)
T1 construct: Endogenous protein in cell or tumor lysates
T1 sequence: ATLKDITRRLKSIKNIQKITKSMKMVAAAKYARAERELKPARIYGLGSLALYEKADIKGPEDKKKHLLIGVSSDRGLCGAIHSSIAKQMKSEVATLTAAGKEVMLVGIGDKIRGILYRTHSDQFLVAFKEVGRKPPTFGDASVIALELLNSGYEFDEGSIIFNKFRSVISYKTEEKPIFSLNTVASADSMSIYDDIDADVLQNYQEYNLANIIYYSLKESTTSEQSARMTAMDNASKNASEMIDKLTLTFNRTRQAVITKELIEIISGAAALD

[2] = target: T2, ATP5A1 (endogenous, HCT116 human colon cancer cells) (human, UniProt P25705 44-553); assay: as above
T2 construct: Endogenous protein in cell or tumor lysates
T2 sequence (P25705 44-553 limits assumed): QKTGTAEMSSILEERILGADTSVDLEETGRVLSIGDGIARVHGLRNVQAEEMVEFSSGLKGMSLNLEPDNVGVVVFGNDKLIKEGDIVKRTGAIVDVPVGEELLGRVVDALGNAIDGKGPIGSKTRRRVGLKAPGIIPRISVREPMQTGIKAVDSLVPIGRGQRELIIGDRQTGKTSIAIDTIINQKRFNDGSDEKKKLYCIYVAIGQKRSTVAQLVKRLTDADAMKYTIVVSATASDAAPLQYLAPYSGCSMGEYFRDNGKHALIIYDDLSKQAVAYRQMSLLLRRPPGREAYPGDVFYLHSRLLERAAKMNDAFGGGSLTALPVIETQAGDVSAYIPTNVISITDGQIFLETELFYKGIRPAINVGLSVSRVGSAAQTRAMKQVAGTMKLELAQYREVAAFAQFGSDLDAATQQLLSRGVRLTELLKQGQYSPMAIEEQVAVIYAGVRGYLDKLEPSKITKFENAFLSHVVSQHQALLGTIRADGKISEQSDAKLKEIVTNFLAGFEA

B1: rATRAM-GRA8-M/AS (6x His-tagged ATRAM-conjugated multifunctional GRA8 peptide) (peptide)
chain: GLAGLAGLLGLEGLLGLPLGLLEGLWLGLELEGNGLAGLAGLLGLEGLLGLPLGLLEGLWLGLELEGNGGATATTTTTTRGGYRFTVQTTQN
notes: also called rATRAM-G8-M/AS; 6x His-rATRAM-GRA8-M/AS; not shown: N-terminal 6x His tag from the pRSFDuet-1 vector
binding result [1]: binds
binding result [2]: binds

From patent US20210188916A1 (INDUSTRY UNIVERSITY COOPERATION FOUNDATION HANYANG …, published 2021)
